Numbered stars: 1 amine (or outer) side, 2 acyl side, 3 side chain; on linkers, the order of the positions; unused ones are H or OH. Bridge positions count the residues as written; N and C are the ends. Side chains are listed from the residue outwards. Ends that are not written are not given here. * marks the point of attachment. C20 diacid = O=C(O)CCCCCCCCCCCCCCCCCCC(=O)*; γGlu = O=C(O)[C@H](CCC(=O)[*:2])N[*:1]; AEEA = NCCOCCOCC(=O)O
T1: human calcitonin receptor (human, UniProt P30988 25-474)
T1 sequence (looked up): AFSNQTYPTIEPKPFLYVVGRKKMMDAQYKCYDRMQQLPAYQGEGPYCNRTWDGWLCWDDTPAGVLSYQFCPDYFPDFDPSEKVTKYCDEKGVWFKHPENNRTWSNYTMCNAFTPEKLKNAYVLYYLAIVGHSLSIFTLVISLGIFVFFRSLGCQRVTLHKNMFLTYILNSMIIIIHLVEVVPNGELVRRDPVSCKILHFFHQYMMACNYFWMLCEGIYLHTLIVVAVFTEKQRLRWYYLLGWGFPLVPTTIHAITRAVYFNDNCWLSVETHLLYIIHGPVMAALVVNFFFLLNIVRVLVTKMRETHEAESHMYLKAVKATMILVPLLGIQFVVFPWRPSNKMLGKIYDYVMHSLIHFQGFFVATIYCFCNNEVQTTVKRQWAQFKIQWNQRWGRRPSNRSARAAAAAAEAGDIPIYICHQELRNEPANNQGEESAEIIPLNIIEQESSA

B1: N^ε1-[2-[2-[2-[[2-[2-[2-[[(4S)-4-carboxy-4-(19-carboxynonadecanoylamino)butanoyl]amino]ethoxy]ethoxy]acetyl]amino]ethoxy]ethoxy]acetyl]-[Arg17,Pro21,Pro27,Glu35 … (peptide)
peptide: K([AEEA-AEEA-γGlu-C20 diacid])CNTATCATQRLANFLRHSSPNFGAIPSSTNVGSETY-NH2
modifications: disulfide 2-7; N-terminus assumed
SMILES: CC[C@H](C)[C@H](NC(=O)[C@H](C)NC(=O)CNC(=O)[C@H](Cc1ccccc1)NC(=O)[C@H](CC(N)=O)NC(=O)[C@@H]1CCCN1C(=O)[C@H](CO)NC(=O)[C@H](CO)NC(=O)[C@H](Cc1c[nH]cn1)NC(=O)[C@H](CCCNC(=N)N)NC(=O)[C@H](CC(C)C)NC(=O)[C@H](Cc1ccccc1)NC(=O)[C@H](CC(N)=O)NC(=O)[C@H](C)NC(=O)[C@H](CC(C)C)NC(=O)[C@H](CCCNC(=N)N)NC(=O)[C@H](CCC(N)=O)NC(=O)[C@@H](NC(=O)[C@H](C)NC(=O)[C@@H]1CSSC[C@H](NC(=O)[C@@H](N)CCCCNC(=O)COCCOCCNC(=O)COCCOCCNC(=O)CC[C@H](NC(=O)CCCCCCCCCCCCCCCCCCC(=O)O)C(=O)O)C(=O)N[C@@H](CC(N)=O)C(=O)N[C@@H]([C@@H](C)O)C(=O)N[C@@H](C)C(=O)N[C@@H]([C@@H](C)O)C(=O)N1)[C@@H](C)O)C(=O)N1CCC[C@H]1C(=O)N[C@@H](CO)C(=O)N[C@@H](CO)C(=O)N[C@H](C(=O)N[C@@H](CC(N)=O)C(=O)N[C@H](C(=O)NCC(=O)N[C@@H](CO)C(=O)N[C@@H](CCC(=O)O)C(=O)N[C@H](C(=O)N[C@@H](Cc1ccc(O)cc1)C(N)=O)[C@@H](C)O)C(C)C)[C@@H](C)O
notes: h-amylin derivative; disulfide bridge and C-terminal amide as told for human amylin; also called compound 25
B2: N^ε1-[2-[2-[2-[[(4S)-4-carboxy-4-(19-carboxynonadecanoylamino)butanoyl]amino]ethoxy]ethoxy]acetyl]-[Arg17,Pro21,Pro27,Pro31]-h-amylin (peptide)
peptide: K([AEEA-γGlu-C20 diacid])CNTATCATQRLANFLRHSSPNFGAIPSSTPVGSNTY-NH2
modifications: disulfide 2-7; N-terminus assumed
SMILES: CC[C@H](C)[C@H](NC(=O)[C@H](C)NC(=O)CNC(=O)[C@H](Cc1ccccc1)NC(=O)[C@H](CC(N)=O)NC(=O)[C@@H]1CCCN1C(=O)[C@H](CO)NC(=O)[C@H](CO)NC(=O)[C@H](Cc1c[nH]cn1)NC(=O)[C@H](CCCNC(=N)N)NC(=O)[C@H](CC(C)C)NC(=O)[C@H](Cc1ccccc1)NC(=O)[C@H](CC(N)=O)NC(=O)[C@H](C)NC(=O)[C@H](CC(C)C)NC(=O)[C@H](CCCNC(=N)N)NC(=O)[C@H](CCC(N)=O)NC(=O)[C@@H](NC(=O)[C@H](C)NC(=O)[C@@H]1CSSC[C@H](NC(=O)[C@@H](N)CCCCNC(=O)COCCOCCNC(=O)CC[C@H](NC(=O)CCCCCCCCCCCCCCCCCCC(=O)O)C(=O)O)C(=O)N[C@@H](CC(N)=O)C(=O)N[C@@H]([C@@H](C)O)C(=O)N[C@@H](C)C(=O)N[C@@H]([C@@H](C)O)C(=O)N1)[C@@H](C)O)C(=O)N1CCC[C@H]1C(=O)N[C@@H](CO)C(=O)N[C@@H](CO)C(=O)N[C@H](C(=O)N1CCC[C@H]1C(=O)N[C@H](C(=O)NCC(=O)N[C@@H](CO)C(=O)N[C@@H](CC(N)=O)C(=O)N[C@H](C(=O)N[C@@H](Cc1ccc(O)cc1)C(N)=O)[C@@H](C)O)C(C)C)[C@@H](C)O
notes: h-amylin derivative; disulfide bridge and C-terminal amide as told for human amylin; also called compound 49
B3: N^ε1-[2-[2-[2-[[(4S)-4-carboxy-4-(19-carboxynonadecanoylamino)butanoyl]amino]ethoxy]ethoxy]acetyl]-[Arg17,Pro21,Pro27,Pro34]-h-amylin (peptide)
peptide: K([AEEA-γGlu-C20 diacid])CNTATCATQRLANFLRHSSPNFGAIPSSTNVGPNTY-NH2
modifications: disulfide 2-7; N-terminus assumed
SMILES: CC[C@H](C)[C@H](NC(=O)[C@H](C)NC(=O)CNC(=O)[C@H](Cc1ccccc1)NC(=O)[C@H](CC(N)=O)NC(=O)[C@@H]1CCCN1C(=O)[C@H](CO)NC(=O)[C@H](CO)NC(=O)[C@H](Cc1c[nH]cn1)NC(=O)[C@H](CCCNC(=N)N)NC(=O)[C@H](CC(C)C)NC(=O)[C@H](Cc1ccccc1)NC(=O)[C@H](CC(N)=O)NC(=O)[C@H](C)NC(=O)[C@H](CC(C)C)NC(=O)[C@H](CCCNC(=N)N)NC(=O)[C@H](CCC(N)=O)NC(=O)[C@@H](NC(=O)[C@H](C)NC(=O)[C@@H]1CSSC[C@H](NC(=O)[C@@H](N)CCCCNC(=O)COCCOCCNC(=O)CC[C@H](NC(=O)CCCCCCCCCCCCCCCCCCC(=O)O)C(=O)O)C(=O)N[C@@H](CC(N)=O)C(=O)N[C@@H]([C@@H](C)O)C(=O)N[C@@H](C)C(=O)N[C@@H]([C@@H](C)O)C(=O)N1)[C@@H](C)O)C(=O)N1CCC[C@H]1C(=O)N[C@@H](CO)C(=O)N[C@@H](CO)C(=O)N[C@H](C(=O)N[C@@H](CC(N)=O)C(=O)N[C@H](C(=O)NCC(=O)N1CCC[C@H]1C(=O)N[C@@H](CC(N)=O)C(=O)N[C@H](C(=O)N[C@@H](Cc1ccc(O)cc1)C(N)=O)[C@@H](C)O)C(C)C)[C@@H](C)O
notes: h-amylin derivative; disulfide bridge and C-terminal amide as told for human amylin; also called compound 50
B4: N^ε1-[2-[2-[2-[[(4S)-4-carboxy-4-(19-carboxynonadecanoylamino)butanoyl]amino]ethoxy]ethoxy]acetyl]-[Arg17,Pro21,Pro27,Glu35]-h-amylin (peptide)
peptide: K([AEEA-γGlu-C20 diacid])CNTATCATQRLANFLRHSSPNFGAIPSSTNVGSETY-NH2
modifications: disulfide 2-7; N-terminus assumed
SMILES: CC[C@H](C)[C@H](NC(=O)[C@H](C)NC(=O)CNC(=O)[C@H](Cc1ccccc1)NC(=O)[C@H](CC(N)=O)NC(=O)[C@@H]1CCCN1C(=O)[C@H](CO)NC(=O)[C@H](CO)NC(=O)[C@H](Cc1c[nH]cn1)NC(=O)[C@H](CCCNC(=N)N)NC(=O)[C@H](CC(C)C)NC(=O)[C@H](Cc1ccccc1)NC(=O)[C@H](CC(N)=O)NC(=O)[C@H](C)NC(=O)[C@H](CC(C)C)NC(=O)[C@H](CCCNC(=N)N)NC(=O)[C@H](CCC(N)=O)NC(=O)[C@@H](NC(=O)[C@H](C)NC(=O)[C@@H]1CSSC[C@H](NC(=O)[C@@H](N)CCCCNC(=O)COCCOCCNC(=O)CC[C@H](NC(=O)CCCCCCCCCCCCCCCCCCC(=O)O)C(=O)O)C(=O)N[C@@H](CC(N)=O)C(=O)N[C@@H]([C@@H](C)O)C(=O)N[C@@H](C)C(=O)N[C@@H]([C@@H](C)O)C(=O)N1)[C@@H](C)O)C(=O)N1CCC[C@H]1C(=O)N[C@@H](CO)C(=O)N[C@@H](CO)C(=O)N[C@H](C(=O)N[C@@H](CC(N)=O)C(=O)N[C@H](C(=O)NCC(=O)N[C@@H](CO)C(=O)N[C@@H](CCC(=O)O)C(=O)N[C@H](C(=O)N[C@@H](Cc1ccc(O)cc1)C(N)=O)[C@@H](C)O)C(C)C)[C@@H](C)O
notes: h-amylin derivative; disulfide bridge and C-terminal amide as told for human amylin; also called compound 26
B5: N^ε1-[(4S)-4-carboxy-4-(19-carboxynonadecanoylamino)butanoyl]-[Arg17,Pro21,Pro27,Glu35]-h-amylin (peptide)
peptide: K([γGlu-C20 diacid])CNTATCATQRLANFLRHSSPNFGAIPSSTNVGSETY-NH2
modifications: disulfide 2-7; N-terminus assumed
SMILES: CC[C@H](C)[C@H](NC(=O)[C@H](C)NC(=O)CNC(=O)[C@H](Cc1ccccc1)NC(=O)[C@H](CC(N)=O)NC(=O)[C@@H]1CCCN1C(=O)[C@H](CO)NC(=O)[C@H](CO)NC(=O)[C@H](Cc1c[nH]cn1)NC(=O)[C@H](CCCNC(=N)N)NC(=O)[C@H](CC(C)C)NC(=O)[C@H](Cc1ccccc1)NC(=O)[C@H](CC(N)=O)NC(=O)[C@H](C)NC(=O)[C@H](CC(C)C)NC(=O)[C@H](CCCNC(=N)N)NC(=O)[C@H](CCC(N)=O)NC(=O)[C@@H](NC(=O)[C@H](C)NC(=O)[C@@H]1CSSC[C@H](NC(=O)[C@@H](N)CCCCNC(=O)CC[C@H](NC(=O)CCCCCCCCCCCCCCCCCCC(=O)O)C(=O)O)C(=O)N[C@@H](CC(N)=O)C(=O)N[C@@H]([C@@H](C)O)C(=O)N[C@@H](C)C(=O)N[C@@H]([C@@H](C)O)C(=O)N1)[C@@H](C)O)C(=O)N1CCC[C@H]1C(=O)N[C@@H](CO)C(=O)N[C@@H](CO)C(=O)N[C@H](C(=O)N[C@@H](CC(N)=O)C(=O)N[C@H](C(=O)NCC(=O)N[C@@H](CO)C(=O)N[C@@H](CCC(=O)O)C(=O)N[C@H](C(=O)N[C@@H](Cc1ccc(O)cc1)C(N)=O)[C@@H](C)O)C(C)C)[C@@H](C)O
notes: h-amylin derivative; disulfide bridge and C-terminal amide as told for human amylin; also called compound 27
B6: N^ε1-[(4S)-4-carboxy-4-(19-carboxynonadecanoylamino)butanoyl]-[Arg17,Pro21,Pro27,Lys35]-h-amylin (peptide)
peptide: K([γGlu-C20 diacid])CNTATCATQRLANFLRHSSPNFGAIPSSTNVGSKTY-NH2
modifications: disulfide 2-7; N-terminus assumed
SMILES: CC[C@H](C)[C@H](NC(=O)[C@H](C)NC(=O)CNC(=O)[C@H](Cc1ccccc1)NC(=O)[C@H](CC(N)=O)NC(=O)[C@@H]1CCCN1C(=O)[C@H](CO)NC(=O)[C@H](CO)NC(=O)[C@H](Cc1c[nH]cn1)NC(=O)[C@H](CCCNC(=N)N)NC(=O)[C@H](CC(C)C)NC(=O)[C@H](Cc1ccccc1)NC(=O)[C@H](CC(N)=O)NC(=O)[C@H](C)NC(=O)[C@H](CC(C)C)NC(=O)[C@H](CCCNC(=N)N)NC(=O)[C@H](CCC(N)=O)NC(=O)[C@@H](NC(=O)[C@H](C)NC(=O)[C@@H]1CSSC[C@H](NC(=O)[C@@H](N)CCCCNC(=O)CC[C@H](NC(=O)CCCCCCCCCCCCCCCCCCC(=O)O)C(=O)O)C(=O)N[C@@H](CC(N)=O)C(=O)N[C@@H]([C@@H](C)O)C(=O)N[C@@H](C)C(=O)N[C@@H]([C@@H](C)O)C(=O)N1)[C@@H](C)O)C(=O)N1CCC[C@H]1C(=O)N[C@@H](CO)C(=O)N[C@@H](CO)C(=O)N[C@H](C(=O)N[C@@H](CC(N)=O)C(=O)N[C@H](C(=O)NCC(=O)N[C@@H](CO)C(=O)N[C@@H](CCCCN)C(=O)N[C@H](C(=O)N[C@@H](Cc1ccc(O)cc1)C(N)=O)[C@@H](C)O)C(C)C)[C@@H](C)O
notes: h-amylin derivative; disulfide bridge and C-terminal amide as told for human amylin; also called compound 35

The binders below were run against T1, human calcitonin receptor (assay: cell-based or functional assay).

Binder	hCTR funct. EC50
B1	10 nM
B2	2.39 nM
B3	0.662 nM
B4	6.34 nM
B5	3 nM
B6	5.46 nM

— US20140087995A1 (published 2014)
